Experimental data: paper PMC4436832 (Molecular Biology of the Cell, 2015)

Assays:
[1] = biological target: Taxol-stabilized microtubules (tubulin, Cytoskeleton T240) (UniProt P02550); experiment: co-sedimentation
[2] = biological target: Acanthamoeba castellani actin (filaments) (Acanthamoeba castellani)
[3] = biological target: the molecule itself; experiment: SEC

B1: Wild-type CapuCT (C-terminal Capu construct, residues 467–1059) (domain or fragment)
chain: VSDNESAKEDGEKPHAVAPPPPPPPPPLHAFVAPPPPPPPPPPPPPPLANYGAPPPPPPPPPGSGSAPPPPPPAPIEGGGGIPPPPPPMSASPSKTTISPAPLPDPAEGNWFHRTNTMRKSAVNPPKPMRPLYWTRIVTSAPPAPRPPSVANSTDSTENSGSSPDEPPAANGADAPPTAPPATKEIWTEIEETPLDNIDEFTELFSRQAIAPVSKPKELKVKRAKSIKVLDPERSRNVGIIWRSLHVPSSEIEHAIYHIDTSVVSLEALQHMSNIQATEDELQRIKEAAGGDIPLDHPEQFLLDISLISMASERISCIVFQAEFEESVTLLFRKLETVSQLSQQLIESEDLKLVFSIILTLGNYMNGGNRQRGQADGFNLDILGKLKDVKSKESHTTLLHFIVRTYIAQRRKEGVHPLEIRLPIPEPADVERAAQMDFEEVQQQIFDLNKKFLGCKRTTAKVLAASRPEIMEPFKSKMEEFVEGADKSMAKLHQSLDECRDLFLETMRFYHFSPKACTLTLAQCTPDQFFEYWTNFTNDFKDIWKKEITSLLNELMKKSKQAQIESRRNVSTKVEKSGRISLKERMLMRRSKN
Kd [1]: 150 nM | stoichiometry N (α/β dimers per binding site) [1]: 1.42 | koff [2]: 0.000245 s⁻¹ | stoichiometry N [3]: 2

B2: CapuCT-D662N (domain or fragment)
chain: VSDNESAKEDGEKPHAVAPPPPPPPPPLHAFVAPPPPPPPPPPPPPPLANYGAPPPPPPPPPGSGSAPPPPPPAPIEGGGGIPPPPPPMSASPSKTTISPAPLPDPAEGNWFHRTNTMRKSAVNPPKPMRPLYWTRIVTSAPPAPRPPSVANSTDSTENSGSSPDEPPAANGADAPPTAPPATKEIWTEIEETPLNNIDEFTELFSRQAIAPVSKPKELKVKRAKSIKVLDPERSRNVGIIWRSLHVPSSEIEHAIYHIDTSVVSLEALQHMSNIQATEDELQRIKEAAGGDIPLDHPEQFLLDISLISMASERISCIVFQAEFEESVTLLFRKLETVSQLSQQLIESEDLKLVFSIILTLGNYMNGGNRQRGQADGFNLDILGKLKDVKSKESHTTLLHFIVRTYIAQRRKEGVHPLEIRLPIPEPADVERAAQMDFEEVQQQIFDLNKKFLGCKRTTAKVLAASRPEIMEPFKSKMEEFVEGADKSMAKLHQSLDECRDLFLETMRFYHFSPKACTLTLAQCTPDQFFEYWTNFTNDFKDIWKKEITSLLNELMKKSKQAQIESRRNVSTKVEKSGRISLKERMLMRRSKN
Kd [1]: 250 nM | stoichiometry N (α/β dimers per binding site) [1]: 0.87 | koff [2]: 0.000297 s⁻¹ | stoichiometry N [3]: 2

B3: CapuCT-D854N (domain or fragment)
chain: VSDNESAKEDGEKPHAVAPPPPPPPPPLHAFVAPPPPPPPPPPPPPPLANYGAPPPPPPPPPGSGSAPPPPPPAPIEGGGGIPPPPPPMSASPSKTTISPAPLPDPAEGNWFHRTNTMRKSAVNPPKPMRPLYWTRIVTSAPPAPRPPSVANSTDSTENSGSSPDEPPAANGADAPPTAPPATKEIWTEIEETPLDNIDEFTELFSRQAIAPVSKPKELKVKRAKSIKVLDPERSRNVGIIWRSLHVPSSEIEHAIYHIDTSVVSLEALQHMSNIQATEDELQRIKEAAGGDIPLDHPEQFLLDISLISMASERISCIVFQAEFEESVTLLFRKLETVSQLSQQLIESEDLKLVFSIILTLGNYMNGGNRQRGQADGFNLDILGKLKNVKSKESHTTLLHFIVRTYIAQRRKEGVHPLEIRLPIPEPADVERAAQMDFEEVQQQIFDLNKKFLGCKRTTAKVLAASRPEIMEPFKSKMEEFVEGADKSMAKLHQSLDECRDLFLETMRFYHFSPKACTLTLAQCTPDQFFEYWTNFTNDFKDIWKKEITSLLNELMKKSKQAQIESRRNVSTKVEKSGRISLKERMLMRRSKN
Kd [1]: 100 nM | stoichiometry N (α/β dimers per binding site) [1]: 1.48 | koff [2]: 0.000592 s⁻¹ | stoichiometry N [3]: 2

B4: CapuCT-H977Y (domain or fragment)
chain: VSDNESAKEDGEKPHAVAPPPPPPPPPLHAFVAPPPPPPPPPPPPPPLANYGAPPPPPPPPPGSGSAPPPPPPAPIEGGGGIPPPPPPMSASPSKTTISPAPLPDPAEGNWFHRTNTMRKSAVNPPKPMRPLYWTRIVTSAPPAPRPPSVANSTDSTENSGSSPDEPPAANGADAPPTAPPATKEIWTEIEETPLDNIDEFTELFSRQAIAPVSKPKELKVKRAKSIKVLDPERSRNVGIIWRSLHVPSSEIEHAIYHIDTSVVSLEALQHMSNIQATEDELQRIKEAAGGDIPLDHPEQFLLDISLISMASERISCIVFQAEFEESVTLLFRKLETVSQLSQQLIESEDLKLVFSIILTLGNYMNGGNRQRGQADGFNLDILGKLKDVKSKESHTTLLHFIVRTYIAQRRKEGVHPLEIRLPIPEPADVERAAQMDFEEVQQQIFDLNKKFLGCKRTTAKVLAASRPEIMEPFKSKMEEFVEGADKSMAKLHQSLDECRDLFLETMRFYYFSPKACTLTLAQCTPDQFFEYWTNFTNDFKDIWKKEITSLLNELMKKSKQAQIESRRNVSTKVEKSGRISLKERMLMRRSKN
Kd [1]: 180 nM | stoichiometry N (α/β dimers per binding site) [1]: 0.95 | koff [2]: 0.0013 s⁻¹ | stoichiometry N [3]: 2

B5: CapuCT-K586M (domain or fragment)
chain: VSDNESAKEDGEKPHAVAPPPPPPPPPLHAFVAPPPPPPPPPPPPPPLANYGAPPPPPPPPPGSGSAPPPPPPAPIEGGGGIPPPPPPMSASPSKTTISPAPLPDPAEGNWFHRTNTMRMSAVNPPKPMRPLYWTRIVTSAPPAPRPPSVANSTDSTENSGSSPDEPPAANGADAPPTAPPATKEIWTEIEETPLDNIDEFTELFSRQAIAPVSKPKELKVKRAKSIKVLDPERSRNVGIIWRSLHVPSSEIEHAIYHIDTSVVSLEALQHMSNIQATEDELQRIKEAAGGDIPLDHPEQFLLDISLISMASERISCIVFQAEFEESVTLLFRKLETVSQLSQQLIESEDLKLVFSIILTLGNYMNGGNRQRGQADGFNLDILGKLKDVKSKESHTTLLHFIVRTYIAQRRKEGVHPLEIRLPIPEPADVERAAQMDFEEVQQQIFDLNKKFLGCKRTTAKVLAASRPEIMEPFKSKMEEFVEGADKSMAKLHQSLDECRDLFLETMRFYHFSPKACTLTLAQCTPDQFFEYWTNFTNDFKDIWKKEITSLLNELMKKSKQAQIESRRNVSTKVEKSGRISLKERMLMRRSKN
Kd [1]: 250 nM | stoichiometry N (α/β dimers per binding site) [1]: 0.88 | koff [2]: 0.000852 s⁻¹ | stoichiometry N [3]: 2

B6: CapuCT-P597L (domain or fragment)
chain: VSDNESAKEDGEKPHAVAPPPPPPPPPLHAFVAPPPPPPPPPPPPPPLANYGAPPPPPPPPPGSGSAPPPPPPAPIEGGGGIPPPPPPMSASPSKTTISPAPLPDPAEGNWFHRTNTMRKSAVNPPKPMRLLYWTRIVTSAPPAPRPPSVANSTDSTENSGSSPDEPPAANGADAPPTAPPATKEIWTEIEETPLDNIDEFTELFSRQAIAPVSKPKELKVKRAKSIKVLDPERSRNVGIIWRSLHVPSSEIEHAIYHIDTSVVSLEALQHMSNIQATEDELQRIKEAAGGDIPLDHPEQFLLDISLISMASERISCIVFQAEFEESVTLLFRKLETVSQLSQQLIESEDLKLVFSIILTLGNYMNGGNRQRGQADGFNLDILGKLKDVKSKESHTTLLHFIVRTYIAQRRKEGVHPLEIRLPIPEPADVERAAQMDFEEVQQQIFDLNKKFLGCKRTTAKVLAASRPEIMEPFKSKMEEFVEGADKSMAKLHQSLDECRDLFLETMRFYHFSPKACTLTLAQCTPDQFFEYWTNFTNDFKDIWKKEITSLLNELMKKSKQAQIESRRNVSTKVEKSGRISLKERMLMRRSKN
Kd [1]: 300 nM | stoichiometry N (α/β dimers per binding site) [1]: 0.88 | koff [2]: 0.0021 s⁻¹ | stoichiometry N [3]: 2

B7: CapuCT-I751T (domain or fragment)
chain: VSDNESAKEDGEKPHAVAPPPPPPPPPLHAFVAPPPPPPPPPPPPPPLANYGAPPPPPPPPPGSGSAPPPPPPAPIEGGGGIPPPPPPMSASPSKTTISPAPLPDPAEGNWFHRTNTMRKSAVNPPKPMRPLYWTRIVTSAPPAPRPPSVANSTDSTENSGSSPDEPPAANGADAPPTAPPATKEIWTEIEETPLDNIDEFTELFSRQAIAPVSKPKELKVKRAKSIKVLDPERSRNVGIIWRSLHVPSSEIEHAIYHIDTSVVSLEALQHMSNIQATEDELQRTKEAAGGDIPLDHPEQFLLDISLISMASERISCIVFQAEFEESVTLLFRKLETVSQLSQQLIESEDLKLVFSIILTLGNYMNGGNRQRGQADGFNLDILGKLKDVKSKESHTTLLHFIVRTYIAQRRKEGVHPLEIRLPIPEPADVERAAQMDFEEVQQQIFDLNKKFLGCKRTTAKVLAASRPEIMEPFKSKMEEFVEGADKSMAKLHQSLDECRDLFLETMRFYHFSPKACTLTLAQCTPDQFFEYWTNFTNDFKDIWKKEITSLLNELMKKSKQAQIESRRNVSTKVEKSGRISLKERMLMRRSKN
koff [2]: 0.00277 s⁻¹
